This data set concerns Escherichia coli TOP10. In words: shrunken log2 fold change of peptide-encoding DNA abundance (4.5 h post-induction vs induction); higher = less antimicrobial activity (less host growth inhibition). The conditions noted are these: time post-induction: 4.5 h; library: site-saturation at positions 5, 18, 19, 20.

This note sets out measurements from the supplement of paper PMC9112550, “Optimization of the antimicrobial peptide Bac7 by deep mutational scanning” (BMC Biology, 2022).
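Also: peptides expressed intracellularly from a pBAD plasmid library in pooled LB shake-flask culture, induced with 0.3% L-arabinose, DNA abundance read by NGS, three biological replicates, DESeq2 with apeglm shrinkage.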

As for RRIRHRPPRLPRPRPRPMNSPRP, the “shrunken log2 fold change” value was -0.214.
The same measure for RRIRNRPPRLPRPRPRPSVDPRP: -0.0699; for RRIRCRPPRLPRPRPRPRCFPRP: -0.158; for RRIRNRPPRLPRPRPRPSIPPRP: -0.134.
The same measure for RRIRLRPPRLPRPRPRPKQHPRP: -0.103; for RRIRVRPPRLPRPRPRPGATPRP: 0.277.
To RRIRWRPPRLPRPRPRPTCIPRP belongs 0.248; to RRIRCRPPRLPRPRPRPPTGPRP, 0.232.
RRIRYRPPRLPRPRPRPVISPRP: the “shrunken log2 fold change” value came to 0.0433.
The same measure for RRIRIRPPRLPRPRPRPLERPRP: 0.0105; for RRIRNRPPRLPRPRPRPCFIPRP: -0.86.
To RRIRRRPPRLPRPRPRPTPGPRP belongs 1.11.
To RRIRFRPPRLPRPRPRPRGDPRP belongs 0.477.
In the case of RRIRERPPRLPRPRPRPHRPPRP, the “shrunken log2 fold change” value was -0.123.
The same measure for RRIRFRPPRLPRPRPRPQYIPRP: -0.0295; for RRIRRRPPRLPRPRPRPQSGPRP: 0.121.
The same measure for RRIRKRPPRLPRPRPRPHFFPRP: 0.101.
To RRIRQRPPRLPRPRPRPVFNPRP belongs -0.291.
With RRIRHRPPRLPRPRPRPYRWPRP, the “shrunken log2 fold change” value is -0.00879.
The same measure for RRIRYRPPRLPRPRPRPAQVPRP: -0.0734; for RRIRVRPPRLPRPRPRPYNCPRP: -0.432.
The same measure for RRIRQRPPRLPRPRPRPVDRPRP: -0.0864.
The same measure for RRIRLRPPRLPRPRPRPWYGPRP: -0.53; for RRIRPRPPRLPRPRPRPHCPPRP: 0.0157.
For RRIRRRPPRLPRPRPRPEWHPRP, the “shrunken log2 fold change” value is -0.107.
To RRIRHRPPRLPRPRPRPDIMPRP belongs -0.261; to RRIRHRPPRLPRPRPRPRPGPRP, 0.324.
In the case of RRIRPRPPRLPRPRPRPMTSPRP, the “shrunken log2 fold change” value was 0.0205.
The same measure for RRIRKRPPRLPRPRPRPWTTPRP: -0.0228.
With RRIRIRPPRLPRPRPRPCFHPRP, the “shrunken log2 fold change” value was -0.532.
To RRIRPRPPRLPRPRPRPCFDPRP belongs 0.0273; to RRIRERPPRLPRPRPRPAQVPRP, -0.149.
To RRIRERPPRLPRPRPRPATYPRP belongs -0.275.
To RRIRARPPRLPRPRPRPFGEPRP belongs 0.15.
RRIRNRPPRLPRPRPRPTWRPRP: the “shrunken log2 fold change” value was found to be 0.421.
RRIRKRPPRLPRPRPRPNDCPRP: the “shrunken log2 fold change” value is -0.0159.
For RRIRNRPPRLPRPRPRPGDVPRP, the “shrunken log2 fold change” value was -0.0732.
To RRIRNRPPRLPRPRPRPAPEPRP belongs 0.948.
For RRIRNRPPRLPRPRPRPDLVPRP, the “shrunken log2 fold change” value was -0.15.
On to RRIRYRPPRLPRPRPRPAGWPRP, for which the “shrunken log2 fold change” value was determined as 0.366.
To RRIRVRPPRLPRPRPRPQQWPRP belongs 0.0185; to RRIRARPPRLPRPRPRPTPYPRP, -0.0244; to RRIRWRPPRLPRPRPRPKKPPRP, 0.558.
To RRIRDRPPRLPRPRPRPEQHPRP belongs 0.465.
The same measure for RRIRSRPPRLPRPRPRPGHWPRP: 0.286.
With RRIRARPPRLPRPRPRPSWQPRP, the “shrunken log2 fold change” value was 0.223.
The same measure for RRIRDRPPRLPRPRPRPIYWPRP: 0.202; for RRIRSRPPRLPRPRPRPSKYPRP: -0.345.
To RRIRHRPPRLPRPRPRPDTLPRP belongs 0.00779; to RRIRGRPPRLPRPRPRPRNAPRP, 0.619.
The same measure for RRIRTRPPRLPRPRPRPDFSPRP: -0.0283; for RRIRGRPPRLPRPRPRPLYYPRP: -0.13.
As to RRIRCRPPRLPRPRPRPEKHPRP, the “shrunken log2 fold change” value was 0.00607.
The same measure for RRIRMRPPRLPRPRPRPVFGPRP: 0.411; for RRIRDRPPRLPRPRPRPNPAPRP: 0.0831; for RRIRHRPPRLPRPRPRPHAMPRP: -0.00419.
For RRIRDRPPRLPRPRPRPRQWPRP, the “shrunken log2 fold change” value is 0.36.
To RRIRARPPRLPRPRPRPNKLPRP belongs -0.206.
The same measure for RRIRIRPPRLPRPRPRPYQIPRP: -0.273; for RRIRGRPPRLPRPRPRPLDCPRP: 0.141; for RRIRTRPPRLPRPRPRPLGKPRP: 0.0663.
Turning to RRIRERPPRLPRPRPRPSLGPRP, the “shrunken log2 fold change” value is -0.143.
The same measure for RRIRKRPPRLPRPRPRPTKAPRP: 0.647.
To RRIRVRPPRLPRPRPRPEHTPRP belongs 0.224; to RRIRTRPPRLPRPRPRPMHTPRP, 0.0134; to RRIRTRPPRLPRPRPRPQPSPRP, -0.095.
The same measure for RRIRKRPPRLPRPRPRPGLQPRP: -0.00225; for RRIRDRPPRLPRPRPRPKVLPRP: -0.041.
Turning to RRIRCRPPRLPRPRPRPIGNPRP, the “shrunken log2 fold change” value is -0.221.
The same measure for RRIRERPPRLPRPRPRPIMLPRP: -0.227.
To RRIRSRPPRLPRPRPRPHFTPRP belongs -0.256.
To RRIRRRPPRLPRPRPRPMSKPRP belongs 0.404; to RRIRVRPPRLPRPRPRPVAWPRP, 0.421; to RRIRPRPPRLPRPRPRPQETPRP, 0.134.
For RRIRYRPPRLPRPRPRPPKQPRP, the “shrunken log2 fold change” value was -0.0678.
RRIRCRPPRLPRPRPRPTYEPRP: the “shrunken log2 fold change” value is -0.717.
To RRIRLRPPRLPRPRPRPIPQPRP belongs -0.0537.
To RRIRNRPPRLPRPRPRPEPHPRP belongs 0.131.
On to RRIRRRPPRLPRPRPRPTFNPRP, for which the “shrunken log2 fold change” value is 0.077.
The same measure for RRIRPRPPRLPRPRPRPHVMPRP: -0.0285; for RRIRARPPRLPRPRPRPKSHPRP: -0.184.
The same measure for RRIRFRPPRLPRPRPRPYNVPRP: -0.138.
The same measure for RRIRCRPPRLPRPRPRPHRQPRP: -0.19; for RRIRYRPPRLPRPRPRPPHIPRP: -0.808; for RRIRKRPPRLPRPRPRPDFSPRP: 0.0114.
As for RRIRHRPPRLPRPRPRPYKTPRP, the “shrunken log2 fold change” value was -0.00968.
The same measure for RRIRRRPPRLPRPRPRPTDKPRP: 0.0418; for RRIRMRPPRLPRPRPRPRNQPRP: 0.484.
To RRIRYRPPRLPRPRPRPQVPPRP belongs -0.124; to RRIRGRPPRLPRPRPRPSAQPRP, 1.26.
To RRIRDRPPRLPRPRPRPDFMPRP belongs 0.161; to RRIRVRPPRLPRPRPRPMVYPRP, -0.17.
On to RRIRIRPPRLPRPRPRPEWDPRP, for which the “shrunken log2 fold change” value came to 0.054.
On to RRIRERPPRLPRPRPRPVNEPRP, for which the “shrunken log2 fold change” value was -0.224.
The same measure for RRIRGRPPRLPRPRPRPCVRPRP: 0.079; for RRIRFRPPRLPRPRPRPMPIPRP: 0.0193; for RRIRTRPPRLPRPRPRPEQIPRP: 0.126.
The same measure for RRIRNRPPRLPRPRPRPIFCPRP: -0.0368; for RRIRDRPPRLPRPRPRPCNKPRP: -0.764; for RRIRYRPPRLPRPRPRPVNNPRP: -1.68.
The same measure for RRIRLRPPRLPRPRPRPMFKPRP: -0.245; for RRIRARPPRLPRPRPRPYDKPRP: -0.865; for RRIRHRPPRLPRPRPRPELVPRP: 0.177.
Regarding RRIRLRPPRLPRPRPRPVRAPRP, the “shrunken log2 fold change” value amounted to 0.687.
To RRIRRRPPRLPRPRPRPAMRPRP belongs 0.538; to RRIRERPPRLPRPRPRPLGKPRP, 0.189.
To RRIRCRPPRLPRPRPRPNCIPRP belongs -0.723; to RRIRFRPPRLPRPRPRPPSAPRP, 0.703.
To RRIRVRPPRLPRPRPRPFWIPRP belongs -0.182; to RRIRRRPPRLPRPRPRPGFAPRP, 0.315; to RRIRNRPPRLPRPRPRPPSRPRP, 0.228.
For RRIRHRPPRLPRPRPRPNKWPRP, the “shrunken log2 fold change” value is -0.0964.
To RRIRRRPPRLPRPRPRPAMYPRP belongs -0.145; to RRIRIRPPRLPRPRPRPGWDPRP, 0.105.
To RRIRNRPPRLPRPRPRPSAKPRP belongs -0.0395.
Turning to RRIRIRPPRLPRPRPRPTLIPRP, the “shrunken log2 fold change” value is -0.101.
The same measure for RRIRSRPPRLPRPRPRPERLPRP: 0.131; for RRIRPRPPRLPRPRPRPQGPPRP: 0.0552.
To RRIRRRPPRLPRPRPRPDFVPRP belongs -0.0983; to RRIRIRPPRLPRPRPRPVETPRP, 0.156.
The same measure for RRIRSRPPRLPRPRPRPDCFPRP: 0.103; for RRIRCRPPRLPRPRPRPHRGPRP: 0.0133; for RRIRFRPPRLPRPRPRPIRCPRP: 0.0461.
As for RRIRNRPPRLPRPRPRPPSYPRP, the “shrunken log2 fold change” value is -0.14.
To RRIRCRPPRLPRPRPRPIDNPRP belongs -0.755.
